# In patent US20120322150A1, “Mechanism and Method for Regulating Glycogen Synthase Kinase 3 (GSK3)-Related Kinases” (CARNEGIE INSTITUTION OF WASHINGTON, priority 2009, published 2012):
# T1: BIN2 (Arabidopsis thaliana, UniProt Q39011)
# T1 construct: made in house; host or cells: E. coli
# T1 sequence (Q39011 1-380): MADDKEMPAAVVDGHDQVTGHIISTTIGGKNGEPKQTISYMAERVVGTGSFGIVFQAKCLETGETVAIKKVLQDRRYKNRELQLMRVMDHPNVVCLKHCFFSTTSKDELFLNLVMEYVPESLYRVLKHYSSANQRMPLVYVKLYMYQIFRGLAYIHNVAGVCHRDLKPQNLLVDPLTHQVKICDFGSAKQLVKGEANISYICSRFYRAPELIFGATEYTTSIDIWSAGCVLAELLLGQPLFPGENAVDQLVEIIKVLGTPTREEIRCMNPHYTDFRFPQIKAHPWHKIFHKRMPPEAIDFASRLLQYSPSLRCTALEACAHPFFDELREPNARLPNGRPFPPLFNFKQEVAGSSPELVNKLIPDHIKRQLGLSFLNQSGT
# B1: PP2: PP1 inhibitor, protein phosphatase inhibitor 2 (protein, UniProt P41236 2-205, looked up)
# Protein phosphatase inhibitor …: AASTASHRPIKGILKNKTSTTSSMVASAEQPRGNVDEELSKKSQKWDEMNILATYHPADKDYGLMKIDEPSTPYHSMMGDDEDACSDTEATEAMAPDILARKLAAAEGLEPKYRIQEQESSGEEDSDLSPEEREKKRQFEMKRKLHYNEGLNIKLARQLISKDLHDDDEDEEMLETADGESMNTEESNQGSTPSDQQQNKLRSS
# B2: BSL1: closest homolog of BSU1 (SEQ ID NO: 28) (protein, listed as Arabidopsis thaliana)
# chain: MGSKPWLHPAPQYKTLETFWDDEDDAPGPRCAHTLTAVAATKTHGPRLILFGGATAIEGGSSSVPGIRLAGVTNTVHSYDILTRKWTRLKPAGEPPSPRAAHAAAAVGTMVVFQGGIGPAGHSTDDLYVLDMTNDKFKWHRVVVQGDGPGPRYGHVMDLVSQRYLVTVTGNDGKRALSDAWALDTAQKPYVWQRLNPDGDRPSARMYASGSARSDGMFLLCGGRDTLGAPLGDAYGLLMHRNGQWEWTLAPGVAPSPRYQHAAVFVGARLHVSGGVLRGGRVIDAEASVAVLDTAAGVWLDRNGQVTSARGSKGQIDQDPSFELMRRCRHGAASVGIRIYVHGGLRGDVLLDDFLVAENSTFQSDISSPLLASDRTQQSSTPRFSYAARPPSGSEPSFSMSEGLSLDENSLEKLTEASAAEAEVASSVWRAAQLGAGTLDEEPSTSDASSPIVESTTDGTANEGDVRLHPRAVVVAKETVGSLGGMVRQLSLDQFQNESRRMVPMNNSDVPQPTKKFTRQKSPQGLHKKVIAALLRPRNWKPPGNRKFFLDSYEVGELCYAAEQIFMHEQTVLQLKAPIKVFGDLHGQFGDLMRLFDEYGFPSTAGDITYIDYLFLGDYVDRGQHSLETITLLLALKIEYPENVHLIRGNHEAADINALFGFRLECIERMGENDGIWAWTRFNQLFNYLPLAALIENKIICMHGGIGRSISTVEQIEKIERPITMDAGSLVLMDLLWSDPTENDSIEGLRPNARGPGLVTFGPDRVTEFCKRNKLQLIIRAHECVMDGFERFAQGQLITLFSATNYCGTANNAGAILVVGRGLVIVPKLIHPLPPPILSPENSPEHSGDDAWMQELNIQRPPTPTRGRPQPDFDRSSLAYI
# B3: Kelch repeat domain: N-terminal Kelch (1-363th amino acid) region of BSU1 (protein)
# chain: MAPDQSYQYPSPSYESIQTFYDTDEDWPGPRCGHTLTAVFVNNSHQLILFGGSTTAVANHNSSLPEISLDGVTNSVHSFDVLTRKWTRLNPIGDVPSPRACHAAALYGTLILIQGGIGPSGPSDGDVYMLDMTNNKWIKFLVGGETPSPRYGHVMDIAAQRWLVIFSGNNGNEILDDTWALDTRGPFSWDRLNPSGNQPSGRMYASGSSREDGIFLLCGGIDHSGVTLGDTYGLKMDSDNVWTPVPAVAPSPRYQHTAVFGGSKLHVIGGILNRARLIDGEAVVAVLDTETGEWVDTNQPETSASGANRQNQYQLMRRCHHAAASFGSHLYVHGGIREDVLLDDLLVAETSQSSSPEPEEDNP
# modifications: left off: a dimerising Fc or GST
# notes: N-terminal Kelch (1-363th amino acid) region of BSU1
# B4: BSU1-D5ION: mutant BSU1, Asp510 to Asn, with reduced phosphatase activity (protein, UniProt Q9LR78 1-793, looked up, variant D510N)
# Serine/threonine-protein …: MAPDQSYQYPSPSYESIQTFYDTDEDWPGPRCGHTLTAVFVNNSHQLILFGGSTTAVANHNSSLPEISLDGVTNSVHSFDVLTRKWTRLNPIGDVPSPRACHAAALYGTLILIQGGIGPSGPSDGDVYMLDMTNNKWIKFLVGGETPSPRYGHVMDIAAQRWLVIFSGNNGNEILDDTWALDTRGPFSWDRLNPSGNQPSGRMYASGSSREDGIFLLCGGIDHSGVTLGDTYGLKMDSDNVWTPVPAVAPSPRYQHTAVFGGSKLHVIGGILNRARLIDGEAVVAVLDTETGEWVDTNQPETSASGANRQNQYQLMRRCHHAAASFGSHLYVHGGIREDVLLDDLLVAETSQSSSPEPEEDNPDNYMLLDDYLMDEPKPLSSEPEASSFIMRSTSEIAMDRLAEAHNLPTIENAFYDSAIEGYVPLQHGAETVGNRGGLVRTASLDQSTQDLHKKVISTLLRPKTWTPPANRDFFLSYLEVKHLCDEVEKIFMNEPTLLQLKVPIKVFGNIHGQYGDLMRLFHEYGHPSVEGDITHIDYLFLGDYVDRGQHSLEIIMLLFALKIEYPKNIHLIRGNHESLAMNRIYGFLTECEERMGESYGFEAWLKINQVFDYLPLAALLEKKVLCVHGGIGRAVTIEEIENIERPAFPDTGSMVLKDILWSDPTMNDTVLGIVDNARGEGVVSFGPDIVKAFLERNGLEMILRAHECVIDGFERFADGRLITVFSATNYCGTAQNAGAILVIGRDMVIYPKLIHPHPPPISSSEEDYTDKAWMQELNIEMPPTPARGESSE
# Columns and labels:
# PP1 = biological target: T2, PP1 (Homo sapiens, UniProt P36873); test: Inhibition of PP1 activity on BIN2; type: biochemical, mammalian
# T2 construct: made in house; host or cells: E. coli
# Procedure: It was next examined whether the mammalian homolog to BSU1, PP1, would dephosphorylate BIN2. A GST-tagged BIN2 was isolated from cells and incubated with PP1 purified from E. coli cells expressing the phosphatase.
# BIN2 = biological target: T1, BIN2; test: In vitro BIN2 inhibition assay (BIN2 phosphorylation of BZR1); type: biochemical
# Procedure: In vitro BIN2 inhibition assays were performed by 3 hrs co-incubation of MBP-BZR1, GST BIN2, GST BSU1 and ^32P-γATP or pre-incubation of GST-BIN2 with GST-BSU1 for various time followed by adding MBP-BZR1 and 32P-γATP. The examine activities of partial BSU1, N-terminal Kelch (1-363th amino acid) and C-terminal phosphatase (364-793th amino acid) region were used. GST, GST-BSU1, GSTBSU1-Ketch and GST-BSU1-phosphatase were pre-incubated with GST-BIN2 for 1 hr, and further incubated with MBP-BZR1 and ^32P-γATP for 3 hrs.
# To test activities of BSU1-YFP, anti-GFP antibody-Protein A beads were used to immunoprecipitate BSU1-YFP from extracts of BSU1-YFP transgenic plants, and non-transgenic wild type plants were used as control. The beads were incubated with GST-BIN2 or GST bin2-1 for 1 hr, and then the beads were removed. The BSU1-treated GST-BIN2 or GST-bin2-1 was further incubated with MBP-BZR1 and ^32P-γATP for 3 hrs.
# [1] = tested on: phospho-myelin basic protein; test: In vitro phosphatase assay using phospho-myelin basic protein; type: biochemical
# Procedure: In vitro phosphatase assay using phospho-myelin basic protein was performed according to manufacturer's protocol (New England Biolab. Beverly, Mass.). To examine tyrosine phosphatase activity of BSU 1, 20 mM p-nitrophenyl phosphate was incubated with MBP-BSD) in 50 uL of reaction buffer (50 mM Tris. pH 7.2, 20 mM NaCl, 5 mM DTT, 10 RIM MgCl2). The reaction was quenched by the addition of 100 uL of 0.5 M NaOH after incubation at 30° C. for 1 hr. p-Nitrophenol production was determined by measuring A405 (extinction coefficient, e=1.78×104 M-tCm J).
# [2] = tested on: phosphorylated BZR1 and BZR2; test: In vitro dephosphorylation of pre-phosphorylated BZR1 and BZR2; type: biochemical, Arabidopsis; details: added after BIN2 and ATP were removed
# Procedure: MBP-BZR1 and GST-BIN2 proteins were expressed and purified from E. coli and maltose or glutathione was removed from the proteins by ultrafiltration using Centricon 30 (Amicon Ultra, Millipore, Billerica, Mass.). To prepare fully phosphorylated BZR1 proteins, MBP-BZR1 protein was incubated with GST BIN2 as 1 to 1 ratio in the kinase buffer containing 100 μM ATP at 30° C. overnight. The protein mixture was incubated with glutathione Sepharose beads to remove GSTBIN2, then with amylose beads to purify MBP-pBZR1. Partially phosphorylated 32Plabeled pBZR1 and pBZR2 were prepared by the same method but MBP-BZR1 or MBP-BZR2 was incubated with GST BIN2 at a 15 to 1 ratio for 3 hrs in the presence of […] 32P-γATP. For dephosphorylation, GST-BSU1 was incubated with fully phosphorylated MBP-pBZR1 and 32P-MBP-pBZR1 or 32 P-MBP-pBZR2 for 12 or 16 Ins, […]
# T2 sequence (P36873 whole entry): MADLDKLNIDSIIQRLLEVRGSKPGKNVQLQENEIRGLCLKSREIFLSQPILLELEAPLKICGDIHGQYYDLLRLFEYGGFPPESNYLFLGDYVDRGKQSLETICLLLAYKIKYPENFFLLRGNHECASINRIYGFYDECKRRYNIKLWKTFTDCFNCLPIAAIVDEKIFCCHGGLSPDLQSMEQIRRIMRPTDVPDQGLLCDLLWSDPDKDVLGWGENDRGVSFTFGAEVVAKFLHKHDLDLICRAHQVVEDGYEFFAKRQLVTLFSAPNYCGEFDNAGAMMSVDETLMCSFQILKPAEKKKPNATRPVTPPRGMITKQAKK
molecule,measurement,setting,value
B1,enzymatic activity of PP1 on BIN2,PP1,inhibited the enzymatic activity of the PP1 phosphatase on BIN2
B2,"BIN2 phosphorylation of BZR1, co-incubation","BIN2; co-incubated with BIN2 and BZR1, 32P-γATP, 3 hrs",inhibit B1N2 phosphorylation of BZR1 and BZR2
same,phosphatase activity on phosphorylated myelin basic protein,"[1]; protein purified from E.coli, metal ions 1 mM",showed manganese-dependent phosphatase activities
same,dephosphorylation of pre-phosphorylated BZR1 / BZR2,[2],do not dephosphorylate phosphorylated BZR1 and BZR2
B3,"BIN2 phosphorylation of BZR1, pre-incubation",BIN2; pre-incubated with BIN2 before adding BZR1,showed no effect
B4,phosphatase activity of the wild type protein,[1]; phospho-myelin basic proteins as a substrate,about 15%
